From the supplement of paper PMC10567573

B1: PTPRD (parent)
chain: ELDELLKEISRKRRSIRYGREVEL

Variants of: B1
Experiment: protein stability index of a GFP-peptide fusion (GPS, HEK-293T) (PSI 1-6); higher = more stable
Settings: c terminus: a fixed tail appended
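Further: lentivirally expressed fusions sorted by FACS into six bins by GFP to DsRed ratio, PSI derived from sequencing read proportions per bin multiplied by bin number.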

Protein stability index: each site, then its substitutions
R20: L 1.84 | P 2.49 | N 2.8 | M 2.02
V22: E 3.18 | L 2.14 | Y 2.27 | N 2.35 | K 2.34 | D 2.96 | R 2.46 | W 2.39 | G 2.64
D3: P 2.26 | W 1.75 | C 1.73 | A 1.76 | F 2.12 | L 1.63 | I 3.46 | S 2.57 | N 3.35
I16: L 2.42 | V 2.35 | A 1.9 | N 2.98 | W 1.8
K12: W 1.66 | R 2.49 | C 2.49 | M 2.11 | F 1.29 | I 1.66
L6: P 4.08 | K 3.92 | I 1.93 | M 2.68 | V 3.8 | R 3.76 | D 4.29 | N 3.81 | G 4.21 | A 3.65
I9: W 2.89 | C 2.54 | Y 2.63 | A 3.14 | R 3.72 | T 3.97 | M 2.64 | E 4.46
E23: K 1.74 | I 2.38 | Y 1.92 | M 2.08 | W 2.09 | A 2.31 | F 2.05 | S 2.47
E8: M 2.37 | D 2.92 | R 2.54 | N 2.44
R14: L 3.77 | Q 2.55 | F 1.96 | M 2.03 | D 2.65
G19: A 2.34 | W 2.9 | T 2.37 | I 2.05
E21: Q 2.13 | T 3.01 | Y 2.15 | S 1.86 | G 2.22 | M 1.86 | H 2.06 | K 2.09 | V 1.86
E1: I 1.77 | S 4.1 | H 2.47 | M 2.73 | Q 2.41 | L 1.98
R11: W 2.3 | S 2.49 | A 2.01 | G 2.01 | C 2.94 | H 2.45 | Y 2.62 | E 3.19
R17: F 1.63 | P 2.97 | D 3.33 | S 2.44 | W 1.85 | E 2.64 | V 2.27
S15: A 2.45 | Q 3.4 | W 1.59 | K 1.88 | V 2.29 | D 1.91 | F 2.27 | H 2.89 | L 2.04 | N 2.65
L5: W 2.35 | C 3.12 | P 3.82 | H 4.08 | S 3.6 | Y 3.44 | F 2.69
L24: M 2.73 | S 2.69 | F 2.55 | E 2.77 | I 2.42 | W 2.42 | P 2.89
E4: H 2.6 | P 2.48 | Y 1.27 | G 3.34
K7: E 3.1 | A 2.83 | D 3.25 | H 2.4 | I 2.27 | G 2.54
Y18: N 2.74 | L 2.59 | I 2.35 | V 1.95 | E 2.96 | T 2.17
S10: T 2.49 | H 2.68 | P 3.01 | N 2.77 | Y 2.06 | W 1.48 | M 2.24 | K 2.17 | C 3.15 | E 2.84 | A 2.44
L2: A 3.79 | H 4.32 | C 3.06 | D 4.14 | Q 4.26 | Y 3.54 | P 3.47
R13: D 4.49 | N 3 | E 3.07 | C 1.8 | G 2.96 | T 2.28 | Q 2.36
